No end group written: not given here. A value given as a limit tells only on which side of the number the result lay.

The test deals with T1, HLA-A*02:01 (peptide-receptive MHC class I monomer after UV cleavage of the UV-sensitive ligand) (human).
T1 construct: MHC monomers loaded by UV-ligand exchange and captured on streptavidin plates
Put plainly: UV ligand-exchange ELISA; exchange yield grade (+ >=10%, ++ >=20%, +++ >=50%, ++++ >=75%). An excerpt:
Candidate peptides for T cell based therapies according to the present invention were further tested for their MHC binding capacity (affinity). The individual peptide-MHC complexes were produced by UV-ligand exchange, where a UV-sensitive peptide is cleaved upon UV-irradiation, and exchanged with the peptide of interest as analyzed. Only peptide candidates that can effectively bind and stabilize the peptide-receptive MHC molecules prevent dissociation of the MHC complexes. To determine the yield of the exchange reaction, an ELISA was performed based on the detection of the light chain (β2m) of stabilized MHC complexes. The assay was performed as generally described in Rodenko et al. (Rodenko et al., 2006).
96 well MAXISorp plates (NUNC) were coated over night with 2 ug/ml streptavidin in PBS at room temperature, washed 4× and blocked for 1 h at 37° C. in 2% BSA containing blocking buffer. Refolded HLA-A*02:01/MLA-001 monomers served as standards, covering the range of 15-500 ng/ml. Peptide-MHC monomers of the UV-exchange reaction were diluted 100 fold in blocking buffer. Samples were incubated for 1 h at 37° C., washed four times, incubated with 2 ug/ml HRP conjugated anti-β2m for 1 h at 37° C., washed again and detected with TMB solution that is stopped with […]. Absorption was measured at 450 nm. Candidate peptides that show a high exchange yield (preferably higher than 50%, most preferred higher than 75%) are generally preferred for a generation and production of antibodies or fragments thereof, and/or T cell receptors or fragments thereof, as they show sufficient avidity to the MHC molecules and prevent dissociation of the MHC complexes.
On to ALKKHLTSV [ALKKHLTSV (SEQ ID NO: 22)], for which the peptide exchange yield fell in the range of 50 to 75%.

Take KLIQLPVVYV [KLIQLPVVYV (SEQ ID NO: 245)]: the peptide exchange yield fell in the range of 50 to 75%.

With FIPDFIPAV [FIPDFIPAV (SEQ ID NO: 241)], the peptide exchange yield was 20 to 50%.

Regarding MLEVHIPSV [MLEVHIPSV (SEQ ID NO: 233)], the peptide exchange yield lay within 50 to 75%.

In turn, ILDTIFHKV [ILDTIFHKV (SEQ ID NO: 203)] had a peptide exchange yield of 50 to 75%.

On to ALFKEAYSL [ALFKEAYSL (SEQ ID NO: 21)], for which the peptide exchange yield was 50 to 75%.

As for FLGSFIDHV [FLGSFIDHV (SEQ ID NO: 26)], the peptide exchange yield lay in the range of 50 to 75%.

The molecule VLTNVGAAL [VLTNVGAAL (SEQ ID NO: 250)] yielded a peptide exchange yield of 50 to 75%.

In turn, SLFDGFFLTA [SLFDGFFLTA (SEQ ID NO: 236)] yielded a peptide exchange yield not below 75%.

On to IIAEYLSYV [IIAEYLSYV (SEQ ID NO: 228)], for which the peptide exchange yield was in the range of 20 to 50%.

GVIDPVPEV [GVIDPVPEV (SEQ ID NO: 226)]: the peptide exchange yield is 20 to 50%.

As to FLQDIPDGLFL [FLQDIPDGLFL (SEQ ID NO: 223)], the peptide exchange yield lay within 20 to 50%.

FLYSETWNI [FLYSETWNI (SEQ ID NO: 254)]: the peptide exchange yield was not below 75%.

In turn, RLCDIVVNV [RLCDIVVNV (SEQ ID NO: 204)] yielded a peptide exchange yield of 20 to 50%.

Turning to GLPDLDIYL [GLPDLDIYL (SEQ ID NO: 243)], the peptide exchange yield is not below 75%.

KVVSNLPAI [KVVSNLPAI (SEQ ID NO: 216)] had a peptide exchange yield of 20 to 50%.

In turn, FLFDGSMSL [FLFDGSMSL (SEQ ID NO: 214)] registered a peptide exchange yield of 50 to 75%.

Consider SLDVYELFL [SLDVYELFL (SEQ ID NO: 235)], for which the peptide exchange yield was 50 to 75%.

YLGDLIMAL [YLGDLIMAL (SEQ ID NO: 252)] yielded a peptide exchange yield of 50 to 75%.

Regarding FIDDLFAFV [FIDDLFAFV (SEQ ID NO: 211)], the peptide exchange yield fell in the range of 50 to 75%.

Regarding VLLESLVEI [VLLESLVEI (SEQ ID NO: 249)], the peptide exchange yield is not below 75%.

Molecule FLSPLLPLL [FLSPLLPLL (SEQ ID NO: 224)] showed a peptide exchange yield of 20 to 50%.

In turn, ILSPWGAEV [ILSPWGAEV (SEQ ID NO: 229)] had a peptide exchange yield not below 75%.

NLQRTVVTV [NLQRTVVTV (SEQ ID NO: 234)] had a peptide exchange yield of 20 to 50%.

Regarding GMWNPNAPVFL [GMWNPNAPVFL (SEQ ID NO: 255)], the peptide exchange yield was not below 75%.

With KLPVPLESV [KLPVPLESV (SEQ ID NO: 246)], the peptide exchange yield was in the range of 50 to 75%.

With IVMGAIPSV [IVMGAIPSV (SEQ ID NO: 231)], the peptide exchange yield lay within 50 to 75%.

In turn, AQFGAVLEV [AQFGAVLEV (SEQ ID NO: 217)] displayed a peptide exchange yield of 50 to 75%.

In the case of FLAEQFEFL [FLAEQFEFL (SEQ ID NO: 210)], the peptide exchange yield was 50 to 75%.

In turn, YLDRLIPQA [YLDRLIPQA (SEQ ID NO: 237)] registered a peptide exchange yield of 50 to 75%.

The molecule VLYELFTYI [VLYELFTYI (SEQ ID NO: 251)] yielded a peptide exchange yield of 50 to 75%.

YSDDDVPSV [YSDDDVPSV (SEQ ID NO: 253)] returned a peptide exchange yield not below 75%.

ALVEDIINL [ALVEDIINL (SEQ ID NO: 23)]: the peptide exchange yield was not below 75%.

TLFYESPHL [TLFYESPHL (SEQ ID NO: 205)] had a peptide exchange yield of 50 to 75%.

As to FLIETGTLL [FLIETGTLL (SEQ ID NO: 222)], the peptide exchange yield lay within 50 to 75%.

In turn, KVLEMETTV [KVLEMETTV (SEQ ID NO: 247)] yielded a peptide exchange yield of 50 to 75%.

As to KVMEGTVAA [KVMEGTVAA (SEQ ID NO: 232)], the peptide exchange yield was 20 to 50%.

Regarding IMDDDSYGV [IMDDDSYGV (SEQ ID NO: 230)], the peptide exchange yield was 20 to 50%.

With GILDFXVFL (not fully specified) [GILDFZVFL (SEQ ID NO: 242)], the peptide exchange yield was not below 75%.

FLDTSNQHLL [FLDTSNQHLL (SEQ ID NO: 25)] had a peptide exchange yield of 50 to 75%.

Consider FLLDTISGL [FLLDTISGL (SEQ ID NO: 209)], for which the peptide exchange yield was 50 to 75%.

FLIGQGAHV [FLIGQGAHV (SEQ ID NO: 212)] showed a peptide exchange yield of 50 to 75%.

QLFEEEIEL [QLFEEEIEL (SEQ ID NO: 215)] came in with a peptide exchange yield of 20 to 50%.

ALQETPPQV [ALQETPPQV (SEQ ID NO: 256)]: the peptide exchange yield was in the range of 50 to 75%.

GLVGLLEQA [GLVGLLEQA (SEQ ID NO: 207)] yielded a peptide exchange yield not below 75%.

Consider AVLGFSFRL [AVLGFSFRL (SEQ ID NO: 24)], for which the peptide exchange yield was in the range of 50 to 75%.

For VLIDDTVLL [VLIDDTVLL (SEQ ID NO: 239)], the peptide exchange yield was in the range of 50 to 75%.

Molecule FLAPDNSLLLA [FLAPDNSLLLA (SEQ ID NO: 221)] showed a peptide exchange yield not below 75%.

YQYGAVVTL [YQYGAVVTL (SEQ ID NO: 238)] gave a peptide exchange yield of 50 to 75%.

The molecule ALLELENSV [ALLELENSV (SEQ ID NO: 219)] showed a peptide exchange yield of 20 to 50%.

The molecule FLAVSLPLL [FLAVSLPLL (SEQ ID NO: 208)] yielded a peptide exchange yield of 50 to 75%.

In turn, IIAEGIPEA [IIAEGIPEA (SEQ ID NO: 227)] came in with a peptide exchange yield of 20 to 50%.

With ALDQFLEGI [ALDQFLEGI (SEQ ID NO: 218)], the peptide exchange yield is 50 to 75%.

Regarding ALVPTPALFYL [ALVPTPALFYL (SEQ ID NO: 240)], the peptide exchange yield is 50 to 75%.

Turning to LLSEETPSA [LLSEETPSA (SEQ ID NO: 2)], the peptide exchange yield fell in the range of 50 to 75%.

The molecule FLAEAPTAL [FLAEAPTAL (SEQ ID NO: 220)] displayed a peptide exchange yield of 20 to 50%.

As for NLLEQFILL [NLLEQFILL (SEQ ID NO: 248)], the peptide exchange yield lay within 50 to 75%.

ILEPFLPAV [ILEPFLPAV (SEQ ID NO: 244)] yielded a peptide exchange yield of 50 to 75%.

In the case of YINEDEYEV [YINEDEYEV (SEQ ID NO: 213)], the peptide exchange yield fell in the range of 20 to 50%.

As for SAVSGQWEV [SAVSGQWEV (SEQ ID NO: 206)], the peptide exchange yield lay in the range of 20 to 50%.

The values are drawn from US20170296640A1 (IMMATICS BIOTECHNOLOGIES, published 2017).
